# T1: brain-derived neurotrophic factor (BDNF) (UniProt P23560 19-247)
# T1 sequence (looked up): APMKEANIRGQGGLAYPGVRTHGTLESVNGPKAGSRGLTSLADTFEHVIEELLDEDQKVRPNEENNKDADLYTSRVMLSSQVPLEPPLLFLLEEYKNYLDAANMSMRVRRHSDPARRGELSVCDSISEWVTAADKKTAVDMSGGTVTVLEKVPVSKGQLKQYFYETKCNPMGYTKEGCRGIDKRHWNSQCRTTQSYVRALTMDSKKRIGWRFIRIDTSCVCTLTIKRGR
# B1: recombinant Np55 protein, extracellular domain (SinoBiological) (domain or fragment)
# chain: QNEPRIVTSEEVIIRDSPVLPVTLQCNLTSSSHTLTYSYWTKNGVELSATRKNASNMEYRINKPRAEDSGEYHCVYHFVSAPKANATIEVKAAPDITGHKRSENKNEGQDATMYCKSVGYPHPDWIWRKKENGMPMDIVNTSGRFFIINKENYTELNIVNLQITEDPGEYECNATNAIGSASVVTVLRVRSHLAP
# modifications: RED-NHS fluorescent label (in the MST assay only)
# Assays:
# [1] = molecular target: T2, mesencephalic astrocyte-derived neurotrophic factor (Manf), recombinant (UniProt P55145 25-182); assay: ELISA
# [2] = molecular target: T2, mesencephalic astrocyte-derived …; assay: MST
# [3] = molecular target: T1, brain-derived neurotrophic factor (BDNF); assay: MST
binder,measurement,setting,value
B1,Kd,[1],14.5 ± 1.17 nM
same,Kd,[2],34.6 ± 7.19 nM
same,Kd,[3],1740 ± 410 nM

# Reference: paper PMC12685124 (Proceedings of the National Academy of Sciences of the …, 2025)
